Patent US20240091274A1

Molecular target: Human CD52 (human) (UniProt P31358)
Assay: cell-based or functional assay

Sequence of Human CD52 (human) (P31358 25-61 limits assumed): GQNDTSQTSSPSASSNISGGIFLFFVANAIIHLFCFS

alemtuzumab (antibody)
CDC killing of human HIP iECs (CD52) with ABO-matched allogeneic serum (XCelligence): 0.001 µg/ml
CDC killing of mouse B6 HIP iECs (CD52) with syngeneic B6 serum (XCelligence): 0.0001 µg/mL
